Laboratory results published in PMC10567574, “piRNA processing by a trimeric Schlafen-domain nuclease” (Nature, 2023).
Changes are numbered by the printed parent chain. Numbers in names are those of the source.

T1: MBP-tagged TOFU-1^82-373 (C. elegans, UniProt O17608 82-373)
T1 construct: TOFU-1 (SLFL-1), C. elegans, residues 82-373; source: E. coli BL21(DE3) derivative, purified; not shown: MBP, N-terminal, kept
T1 sequence (looked up): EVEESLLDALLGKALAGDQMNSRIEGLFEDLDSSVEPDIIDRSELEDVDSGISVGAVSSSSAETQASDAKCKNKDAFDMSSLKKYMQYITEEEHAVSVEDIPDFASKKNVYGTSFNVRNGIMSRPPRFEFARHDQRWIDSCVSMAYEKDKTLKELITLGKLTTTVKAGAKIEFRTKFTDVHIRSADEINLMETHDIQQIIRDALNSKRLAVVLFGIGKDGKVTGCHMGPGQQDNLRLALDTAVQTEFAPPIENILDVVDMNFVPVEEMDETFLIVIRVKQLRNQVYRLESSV

T2: TOFU-6^eTUDOR V266E (C. elegans, UniProt Q09293 119-314, V266E)
T2 construct: TOFU-6, C. elegans, eTUDOR domain (residues 119-314 as stated for TOFU-6^eTUDOR) with V266E; source: purified recombinant
T2 sequence (looked up): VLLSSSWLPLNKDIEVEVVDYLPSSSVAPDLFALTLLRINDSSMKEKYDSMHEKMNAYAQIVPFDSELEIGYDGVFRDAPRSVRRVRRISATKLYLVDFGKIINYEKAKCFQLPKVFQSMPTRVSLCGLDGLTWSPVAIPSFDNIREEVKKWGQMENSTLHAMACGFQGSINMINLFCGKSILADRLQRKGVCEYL

T3: MBP-TOFU-6^eTUDOR domain (C. elegans, UniProt Q09293 119-314)
T3 construct: TOFU-6, C. elegans, eTUDOR domain (residues 119-314 as stated for TOFU-6^eTUDOR); source: purified recombinant
T3 sequence (looked up): T2 sequence (looked up) with E148V

B1: TOFU-6 eTUDOR domain (residues 119-314) (domain or fragment, C. elegans, UniProt Q09293 119-314, looked up)
chain: T2 sequence (looked up) with E148V
notes: TOFU-6, C. elegans, eTUDOR domain, residues 119-314; also called extended TUDOR domain of TOFU-6
B2: TOFU-1^W-82-113 (peptide)
chain: WEVEESLLDALLGKALAGDQMNSRIEGLFEDLD
notes: tryptophan residue added at the N terminus so that the concentration can be determined; Used for ITC and crystallization; also called TOFU-1^pep; TOFU-1 peptide; source: purified (engineered TOFU-1 peptide)
B3: TOFU-1^82-172 (domain or fragment, C. elegans, UniProt O17608 82-172, looked up)
chain: EVEESLLDALLGKALAGDQMNSRIEGLFEDLDSSVEPDIIDRSELEDVDSGISVGAVSSSSAETQASDAKCKNKDAFDMSSLKKYMQYITE
notes: also called TOFU-1^N; source: E. coli BL21(DE3) derivative, purified
B4: TOFU-1^pep (residues 82-113) (peptide, UniProt O17608 82-113, looked up)
chain: EVEESLLDALLGKALAGDQMNSRIEGLFEDLD
notes: also called first helix of the N-terminal part of TOFU-1; source: E. coli BL21(DE3) derivative, purified
B5: TOFU-1^82-172 L88R/L92R (domain or fragment, C. elegans, UniProt O17608 82-172, looked up)
chain: B3 chain with L7R, L11R
notes: source: purified recombinant
B6: GST-tagged TOFU-1^82-113 (peptide, UniProt O17608 82-113, looked up)
chain: B4 chain
notes: also called TOFU-1^pep; source: purified recombinant; not shown: GST, N-terminal, kept

What was measured:
Conditions in all cases: both partners purified
[1] = molecular target: T1, MBP-tagged TOFU-1^82-373; test: pull-down; purified MBP-tagged TOFU-1 as bait on amylose beads, incubated with excess prey; 20 mM Tris/HCl pH 7.5, 150 mM NaCl, 10% glycerol, 0.05% NP40, 1 mM DTT; SDS-PAGE with Coomassie staining
[2] = molecular target: B1; test: ITC; TOFU-6^eTUDOR (injectant, 400-450 uM) titrated into TOFU-1^W-82-113 (cell, 45-48 uM); 25 C; 20 mM Tris, 250 mM NaCl, 0.5 mM TCEP, pH 7.50; mean of three experiments
[3] = molecular target: T2, TOFU-6^eTUDOR V266E; test: SEC; purified proteins alone or mixed at 20-40 uM, 1 h on ice; Superdex 200 Increase 3.2/300 in 20 mM Tris/HCl pH 7.5, 150 mM NaCl, 2 mM DTT; elution volumes compared, peak fractions on SDS-PAGE
[4] = molecular target: B1; test: as above
[5] = molecular target: T3, MBP-TOFU-6^eTUDOR domain; test: pull-down; purified MBP-TOFU-6^eTUDOR constructs as bait (MBP pull-down) and GST-tagged TOFU-1 constructs as bait (GST pull-down); 20 mM Tris/HCl pH 7.5, 150 mM NaCl, 10% glycerol, 0.05% NP40, 1 mM DTT; SDS-PAGE with Coomassie staining

Binder: B1
binding result [1]: binds

Binder: B2
Kd [2]: ~20 µM

Binder: B3
binding result [3]: binds
binding result [4]: binds

Binder: B4
binding result [4]: binds

Binder: B5
binding result [4]: binds

Binder: B6
binding result [5]: binds
